Experimental data: the supplement of paper PMC10567573

B1: INTS3 (parent)
chain: KKREFRFHPIKETVVEEPVDITPY

Variants of: B1
Experiment: protein stability index of a GFP-peptide fusion (GPS, HEK-293T) (PSI 1-6); higher = more stable
Conditions: c terminus: a fixed tail appended
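Also: lentivirally expressed fusions sorted by FACS into six bins by GFP to DsRed ratio, PSI derived from sequencing read proportions per bin multiplied by bin number.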

Variant	protein stability index
KKREFPFHPIKETVVEEPVDITPY	4.38
KKREFLFHPIKETVVEEPVDITPY	4.15
KKREFMFHPIKETVVEEPVDITPY	4.02
KKREFHFHPIKETVVEEPVDITPY	4.52
KKREFYFHPIKETVVEEPVDITPY	3.66
KKREFTFHPIKETVVEEPVDITPY	4.38
KKREFIFHPIKETVVEEPVDITPY	4.01
KKREFAFHPIKETVVEEPVDITPY	3.97
KKREFGFHPIKETVVEEPVDITPY	4.57
KKREFRFHYIKETVVEEPVDITPY	1.99
KKREFRFHFIKETVVEEPVDITPY	2.17
KKREFRFHWIKETVVEEPVDITPY	1.81
KKREFRFHLIKETVVEEPVDITPY	1.9
KKREFRFHQIKETVVEEPVDITPY	2.17
KKREFRFHRIKETVVEEPVDITPY	2.3
KKREFRFHMIKETVVEEPVDITPY	2.17
KKREFRFHKIKETVVEEPVDITPY	2.59
KKREFRFHDIKETVVEEPVDITPY	3.8
KKREARFHPIKETVVEEPVDITPY	4.36
KKREQRFHPIKETVVEEPVDITPY	4.37
KKRESRFHPIKETVVEEPVDITPY	4.45
KKREYRFHPIKETVVEEPVDITPY	3.92
KKREPRFHPIKETVVEEPVDITPY	4.18
KKREWRFHPIKETVVEEPVDITPY	2.56

Variant	protein stability index
KKREKRFHPIKETVVEEPVDITPY	4.75
KKREVRFHPIKETVVEEPVDITPY	4.63
KKREFRFHPIKETVVEEPVDLTPY	2.01
KKREFRFHPIKETVVEEPVDMTPY	1.7
KKREFRFHPIKETVVEEPVDSTPY	1.21
KKREFRFHPIKETVVEEPVDFTPY	1.92
KKREFRFHPIKETVVEEPVDTTPY	1.95
KKREFRFHPIKETVVEEPVDDTPY	2.37
KKREFRFHPIKETVVEEPVDKTPY	2.02
KKREFRFHPIKETVVEEPVDNTPY	2
KKREFRYHPIKETVVEEPVDITPY	2.84
KKREFRMHPIKETVVEEPVDITPY	4.4
KKREFRDHPIKETVVEEPVDITPY	4.43
KKREFRKHPIKETVVEEPVDITPY	4.39
KKREFRLHPIKETVVEEPVDITPY	4.21
KKREFRNHPIKETVVEEPVDITPY	4.91
KKREFRHHPIKETVVEEPVDITPY	4.63
KKREFRTHPIKETVVEEPVDITPY	4.79
KKREFRCHPIKETVVEEPVDITPY	4.26
KKREFRFHPIKEGVVEEPVDITPY	2.33
KKREFRFHPIKEQVVEEPVDITPY	1.96
KKREFRFHPIKERVVEEPVDITPY	1.79
KKREFRFHPIKELVVEEPVDITPY	1.43
KKREFRFHPIKENVVEEPVDITPY	1.63

Variant	protein stability index
KKREFRFHPIKEVVVEEPVDITPY	2.12
KKREFRFHPIKEYVVEEPVDITPY	3.62
KKREFRFHPIKEAVVEEPVDITPY	1.92
KKREFRFHPIKEIVVEEPVDITPY	1.58
KKREFRFHPPKETVVEEPVDITPY	1.9
KKREFRFHPCKETVVEEPVDITPY	1.51
KKREFRFHPAKETVVEEPVDITPY	2.08
KKREFRFHPDKETVVEEPVDITPY	2.28
KKREFRFHPLKETVVEEPVDITPY	1.75
KKREFRFHPWKETVVEEPVDITPY	3.25
KKREFRFHPHKETVVEEPVDITPY	2.09
KKREFRFHPIKETVVEEPGDITPY	1.98
KKREFRFHPIKETVVEEPQDITPY	1.8
KKREFRFHPIKETVVEEPIDITPY	1.51
KKREFRFHPIKETVVEEPNDITPY	2.02
KKREFRFHPIKETVVEEPMDITPY	2.23
KKREFRFHPIKETVVEEPKDITPY	1.88
KKREFRFHPIKETVVEEPFDITPY	1.77
KKREFRFHPIKETVVEEPDDITPY	2.13
KKREFRFHPIKETVVEECVDITPY	1.86
KKREFRFHPIKETVVEEFVDITPY	2.72
KKREFRFHPIKETVVEERVDITPY	2.78
KKREFRFHPIKETVVEEVVDITPY	1.83
KKREFRFHPIKETVVEEPVPITPY	1.79

Variant	protein stability index
KKREFRFHPIKETVVEEPVFITPY	2.48
KKREFRFHPIKETVVEEPVGITPY	2.15
KKREFRFHPIKETVVEEPVWITPY	1.6
KKREFRFHPIKETVVEEPVRITPY	2.22
KKREFRFHPIKETVVEEPVQITPY	2.02
KKREFRFHPIKETVVEEPVKITPY	1.05
KKREFRFHPIKETVVEEPVYITPY	2.16
KKREFRFHPIKETVVEEPVAITPY	1.26
KKREFRFHPIKETVREEPVDITPY	1.98
KKREFRFHPIKETVNEEPVDITPY	1.75
KKREFRFHPIKETVWEEPVDITPY	1.53
KKREFRFHPIKETVMEEPVDITPY	2.13
KKREFRFHPIKETVFEEPVDITPY	1.91
KKREFRFHPIKETVGEEPVDITPY	1.49
KKREFRFHPIKETVDEEPVDITPY	2.35
KKREFRFHPIKETVKEEPVDITPY	1.39
WKREFRFHPIKETVVEEPVDITPY	2.1
DKREFRFHPIKETVVEEPVDITPY	2.01
GKREFRFHPIKETVVEEPVDITPY	1.69
IKREFRFHPIKETVVEEPVDITPY	1.65
RKREFRFHPIKETVVEEPVDITPY	1.84
FKREFRFHPIKETVVEEPVDITPY	2.04
YKREFRFHPIKETVVEEPVDITPY	2.12
NKREFRFHPIKETVVEEPVDITPY	1.94

Variant	protein stability index
KKREFRFHPIKETVVEMPVDITPY	1.95
KKREFRFHPIKETVVEVPVDITPY	2.02
KKREFRFHPIKETVVERPVDITPY	2.32
KKREFRFHPIKETVVENPVDITPY	2.19
KKREFRFHPIKETVVEIPVDITPY	2.6
KKREFRFHPIKETCVEEPVDITPY	1.98
KKREFRFHPIKETIVEEPVDITPY	1.91
KKREFRFHPIKETGVEEPVDITPY	1.63
KKREFRFHPIKETEVEEPVDITPY	1.95
KKREFRFHPIKETQVEEPVDITPY	3.65
KKREFRFHPIIETVVEEPVDITPY	1.85
KKREFRFHPIPETVVEEPVDITPY	2.33
KKREFRFHPIDETVVEEPVDITPY	2.72
KKREFRFHPIMETVVEEPVDITPY	2.64
KKREFRFHPIVETVVEEPVDITPY	2.36
KKREFRFHPIHETVVEEPVDITPY	2.04
KKREFRFHPITETVVEEPVDITPY	1.97
KKREFRFHPIEETVVEEPVDITPY	2.5
KKREFRFHPIQETVVEEPVDITPY	1.82
KKRCFRFHPIKETVVEEPVDITPY	3.03
KKRNFRFHPIKETVVEEPVDITPY	1.48
KKRPFRFHPIKETVVEEPVDITPY	2.62
KKRIFRFHPIKETVVEEPVDITPY	2.05
KKRLFRFHPIKETVVEEPVDITPY	1.79

Variant	protein stability index
KKRHFRFHPIKETVVEEPVDITPY	1.9
KKRWFRFHPIKETVVEEPVDITPY	1.41
KKRAFRFHPIKETVVEEPVDITPY	2.29
KKREFRFHPIKETVVEEPVDIQPY	1.93
KKREFRFHPIKETVVEEPVDIKPY	1.88
KKREFRFHPIKETVVEEPVDIHPY	2.23
KKREFRFHPIKETVVEEPVDIDPY	2.12
KKREFRFHPIKETVVEEPVDIMPY	1.89
KKREFRFHPIKETVVEEPVDIPPY	1.86
KKREFRFHPIKETVVEEPVDIWPY	1.3
KKREFRFHPIKETVVEEPVDILPY	2.33
KKREFRFHPIKETVVEEPVDIGPY	2.03
KKREFRFHPIKETVVEEPVDIIPY	1.96
KKREFRFPPIKETVVEEPVDITPY	4.58
KKREFRFDPIKETVVEEPVDITPY	4.47
KKREFRFCPIKETVVEEPVDITPY	3.25
KKREFRFTPIKETVVEEPVDITPY	3.34
KKREFRFNPIKETVVEEPVDITPY	3.96
KKREFRFSPIKETVVEEPVDITPY	3.54
KKREFRFEPIKETVVEEPVDITPY	3.55
KKREFRFMPIKETVVEEPVDITPY	3.79
KKREFRFKPIKETVVEEPVDITPY	4.01
KKREFRFRPIKETVVEEPVDITPY	4.07
KKREFRFAPIKETVVEEPVDITPY	3.27

Variant	protein stability index
KIREFRFHPIKETVVEEPVDITPY	2.55
KHREFRFHPIKETVVEEPVDITPY	1.67
KTREFRFHPIKETVVEEPVDITPY	2.14
KFREFRFHPIKETVVEEPVDITPY	2.08
KPREFRFHPIKETVVEEPVDITPY	2.5
KRREFRFHPIKETVVEEPVDITPY	2.29
KEREFRFHPIKETVVEEPVDITPY	2.55
KKREFRFHPIKETVVIEPVDITPY	2.29
KKREFRFHPIKETVVPEPVDITPY	2.54
KKREFRFHPIKETVVFEPVDITPY	2.4
KKREFRFHPIKETVVWEPVDITPY	2.1
KKREFRFHPIKETVVNEPVDITPY	2.39
KKREFRFHPIKETVVREPVDITPY	2.73
KKREFRFHPIKETVVGEPVDITPY	2.47
KKREFRFHPIKETVVMEPVDITPY	1.41
KKREFRFHPIKETVVEEPVDITSY	1.61
KKREFRFHPIKETVVEEPVDITCY	2.08
KKREFRFHPIKETVVEEPVDITRY	1.55
KKREFRFHPIKETVVEEPVDITWY	2.28
KKREFRFHPIKETVVEEPVDITMY	2.4
KKREFRFHPIKETVVEEPVDITAY	1.66
KKREFRFHPIKETVVEEPVDITIY	1.5
KKREFRFHPIKLTVVEEPVDITPY	3.92
KKREFRFHPIKFTVVEEPVDITPY	2.96

Variant	protein stability index
KKREFRFHPIKKTVVEEPVDITPY	2.19
KKREFRFHPIKDTVVEEPVDITPY	1.87
KKREFRFHPIKNTVVEEPVDITPY	1.86
KKREFRFHPIKSTVVEEPVDITPY	1.56
KKHEFRFHPIKETVVEEPVDITPY	2.14
KKTEFRFHPIKETVVEEPVDITPY	1.73
KKYEFRFHPIKETVVEEPVDITPY	2.25
KKQEFRFHPIKETVVEEPVDITPY	1.89
KKLEFRFHPIKETVVEEPVDITPY	1.61
KKVEFRFHPIKETVVEEPVDITPY	1.92
KKFEFRFHPIKETVVEEPVDITPY	1.62
KKEEFRFHPIKETVVEEPVDITPY	2.74
KKNEFRFHPIKETVVEEPVDITPY	1.76
KKGEFRFHPIKETVVEEPVDITPY	1.72
KKREFRFHPIKETVVEEPVDITPK	1.71
KKREFRFHPIKETVVEEPVDITPC	2.16
KKREFRFHPIKETVVEEPVDITPE	2.38
KKREFRFHPIKETVVEEPVDITPP	2.17
KKREFRFHPIKETVVEEPVDITPH	1.99
KKREFRFHPIKETVVEEPVDITPT	2.24
